T1: mfNPR1-mFc (monkey)
T1 construct: also called dimeric monkey NPR1
T1 chain: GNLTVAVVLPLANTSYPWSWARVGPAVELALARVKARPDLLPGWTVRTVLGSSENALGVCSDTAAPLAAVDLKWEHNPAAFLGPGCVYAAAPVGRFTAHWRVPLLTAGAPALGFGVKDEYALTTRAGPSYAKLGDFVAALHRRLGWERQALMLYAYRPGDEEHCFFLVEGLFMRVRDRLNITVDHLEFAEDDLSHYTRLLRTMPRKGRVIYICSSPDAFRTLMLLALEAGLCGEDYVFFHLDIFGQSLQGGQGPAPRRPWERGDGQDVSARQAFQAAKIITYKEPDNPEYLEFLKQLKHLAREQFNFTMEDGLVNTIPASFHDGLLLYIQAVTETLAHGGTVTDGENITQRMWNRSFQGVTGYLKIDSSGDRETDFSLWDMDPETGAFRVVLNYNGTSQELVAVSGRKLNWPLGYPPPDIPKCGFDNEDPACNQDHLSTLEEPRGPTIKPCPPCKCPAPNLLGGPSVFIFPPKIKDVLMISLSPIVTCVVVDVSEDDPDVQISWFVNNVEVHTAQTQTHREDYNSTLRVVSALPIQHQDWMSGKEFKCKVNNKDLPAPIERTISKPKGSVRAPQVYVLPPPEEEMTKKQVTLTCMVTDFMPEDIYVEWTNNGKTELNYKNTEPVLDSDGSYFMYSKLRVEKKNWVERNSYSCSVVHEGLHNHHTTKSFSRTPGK


Columns and labels:
mfNPR1-mFc:hANP complex [1] = target: T2, mfNPR1-mFc:hANP complex (monkey; human, UniProt P01160 124-151); assay: SPR, mAb captured, 25C
T2 construct: also called monkey NPR1 complexed to ANP
Method: (§1) Equilibrium dissociation constant (KD) for different NPR1 reagents binding to purified anti-NPR1 monoclonal antibodies (mAbs) were determined using a real-time surface plasmon resonance based Biacore 4000 biosensor. All binding studies were performed in 10 mM HEPES, 150 mM NaCl, 3 mM EDTA, and 0.05% v/v Surfactant Tween-20, pH 7.4 (HBS-ET) running buffer at 25° C. and 37° C. The Biacore CM5 sensor chip surface was first derivatized by amine coupling with either mouse anti-human Fc specific mAb (GE Healthcare, #BR100839) or goat anti-human Fcy specific polyclonal antibody (Jackson ImmunoResearch Laboratories, #BR-1008-39) to capture anti-NPR1 mAbs.

[2] = target: T3, hNPR1-mFc:hANP or hNPR1-hFc:hANP complex (human, UniProt P01160 124-151); assay: SPR, mAb captured, 25C
T3 construct: also called human NPR1 complexed to ANP
Method: as §1

hNPR1-mFc:hBNP complex [3] = target: T4, hNPR1-mFc:hBNP complex (human, UniProt P16860 103-134); assay: SPR, mAb captured, 25C
T4 construct: also called human NPR1 complexed to BNP
Method: as §1

mfNPR1-mFc:hBNP complex = target: T5, mfNPR1-mFc:hBNP complex (monkey; human, UniProt P16860 103-134); assay: SPR, mAb captured, 25C
T5 construct: also called monkey NPR1 complexed to BNP
Method: as §1

mfNPR1-mFc:hANP complex [4] = target: T2, mfNPR1-mFc:hANP complex; assay: SPR, mAb captured, 37C
Method: as §1

[5] = target: T3, hNPR1-mFc:hANP or hNPR1-hFc:hANP complex; assay: SPR, mAb captured, 37C
Method: as §1

hNPR1-mFc:hBNP complex [6] = target: T4, hNPR1-mFc:hBNP complex; assay: SPR, mAb captured, 37C
Method: as §1

mfNPR1-mFc [7] = target: T1, mfNPR1-mFc; assay: SPR, mAb captured, 37C
Method: as §1

mfNPR1-mFc [8] = target: T1, mfNPR1-mFc; assay: SPR, mAb captured, 25C
Method: as §1

Binder | 100 nM Ag Bound (RU) (mfNPR1-mFc:hANP complex [1]) | Kd (mfNPR1-mFc:hANP complex [1]) | koff (mfNPR1-mFc:hANP complex [1]) | kon (mfNPR1-mFc:hANP complex [1]) | t½ (mfNPR1-mFc:hANP complex [1]) | 100 nM Ag Bound (RU) [2] | Kd [2] | koff [2] | kon [2] | t½ [2] | 100 nM Ag Bound (RU) (hNPR1-mFc:hBNP complex [3]) | Kd (hNPR1-mFc:hBNP complex [3]) | koff (hNPR1-mFc:hBNP complex [3]) | kon (hNPR1-mFc:hBNP complex [3]) | t½ (hNPR1-mFc:hBNP complex [3]) | 100 nM Ag Bound (RU) [5] | Kd [5] | koff [5] | kon [5] | t½ [5] | further results
mAb25545 (antibody, human IgG4, V domains shown) VH: QVQLVESGGGLVKPGGSLRLSCAASGFTFSDYHLSWIRQAPGKGLEWVSYIRSSGRTIDYAASVKGRFTISRDNAKNSLYLQMNSLRVEDTAVYYCARENWIVLKVYAGIVGAPLDQWGQGTLVTVSS VL: not shown | 45 RU | 2.35 nM | 5.37e-05 s⁻¹ | 22800 M⁻¹ s⁻¹ | 215 min | 28 RU | 1.98 nM | 4.63e-05 s⁻¹ | 23400 M⁻¹ s⁻¹ | 250 min | 27 RU | 2.72 nM | 6.26e-05 s⁻¹ | 23000 M⁻¹ s⁻¹ | 185 min | 58 RU | 2.35 nM | 8.61e-05 s⁻¹ | 36700 M⁻¹ s⁻¹ | 134 min | 100 nM Ag Bound (RU) (mfNPR1-mFc:hBNP complex): 42 RU; Kd (mfNPR1-mFc:hBNP complex): 2.08 nM; koff (mfNPR1-mFc:hBNP complex): 4.97e-05 s⁻¹; kon (mfNPR1-mFc:hBNP complex): 23900 M⁻¹ s⁻¹; t½ (mfNPR1-mFc:hBNP complex): 232 min; 100 nM Ag Bound (RU) (mfNPR1-mFc:hANP complex [4]): 86 RU; Kd (mfNPR1-mFc:hANP complex [4]): 2.04 nM; koff (mfNPR1-mFc:hANP complex [4]): 8.18e-05 s⁻¹; kon (mfNPR1-mFc:hANP complex [4]): 40100 M⁻¹ s⁻¹; t½ (mfNPR1-mFc:hANP complex [4]): 141 min; 100 nM Ag Bound (RU) (hNPR1-mFc:hBNP complex [6]): 56 RU; Kd (hNPR1-mFc:hBNP complex [6]): 2.85 nM; koff (hNPR1-mFc:hBNP complex [6]): 9.84e-05 s⁻¹; kon (hNPR1-mFc:hBNP complex [6]): 34600 M⁻¹ s⁻¹; t½ (hNPR1-mFc:hBNP complex [6]): 117 min; 100 nM Ag Bound (RU) (mfNPR1-mFc [7]): 26 RU; Kd (mfNPR1-mFc [7]): 2.62 nM; koff (mfNPR1-mFc [7]): 0.000144 s⁻¹; kon (mfNPR1-mFc [7]): 55100 M⁻¹ s⁻¹; t½ (mfNPR1-mFc [7]): 80 min
mAb22805 (antibody, human IgG4, V domains shown) VH: QVQLVESGGGVVQPGRSLRLSCAASGFTFSTYGMHWVRQAPGKGLEWVALIWNDGSNKYYADSVKGRFTISRDNSKNTLDLQMNSLRAEDTAVYYCARLNTRITGTTNLDYWGQGTLVTVSS VL: DIQMTQSPSSLSASVGDRVTVSCRASQSIANYLNWYQQKPGKAPNLLIYGAYTLQSGVPSRFRGSGSGTDFTLTISSLQPEDFATYYCQQTYSTPPITFGQGTRLEIK | 116 RU | 1.96 nM | 9.51e-05 s⁻¹ | 48400 M⁻¹ s⁻¹ | 121 min | 84 RU | 3.28 nM | 0.000141 s⁻¹ | 43100 M⁻¹ s⁻¹ | 81.7 min | 84 RU | 3.68 nM | 0.000152 s⁻¹ | 41400 M⁻¹ s⁻¹ | 75.8 min | 113 RU | 4.91 nM | 0.000295 s⁻¹ | 60100 M⁻¹ s⁻¹ | 39.2 min | 100 nM Ag Bound (RU) (mfNPR1-mFc:hBNP complex): 113 RU; Kd (mfNPR1-mFc:hBNP complex): 2.12 nM; koff (mfNPR1-mFc:hBNP complex): 9.6e-05 s⁻¹; kon (mfNPR1-mFc:hBNP complex): 45300 M⁻¹ s⁻¹; t½ (mfNPR1-mFc:hBNP complex): 120 min; 100 nM Ag Bound (RU) (mfNPR1-mFc:hANP complex [4]): 153 RU; Kd (mfNPR1-mFc:hANP complex [4]): 3.3 nM; koff (mfNPR1-mFc:hANP complex [4]): 0.000209 s⁻¹; kon (mfNPR1-mFc:hANP complex [4]): 63300 M⁻¹ s⁻¹; t½ (mfNPR1-mFc:hANP complex [4]): 55.3 min; 100 nM Ag Bound (RU) (hNPR1-mFc:hBNP complex [6]): 112 RU; Kd (hNPR1-mFc:hBNP complex [6]): 6.02 nM; koff (hNPR1-mFc:hBNP complex [6]): 0.000313 s⁻¹; kon (hNPR1-mFc:hBNP complex [6]): 52000 M⁻¹ s⁻¹; t½ (hNPR1-mFc:hBNP complex [6]): 36.9 min
mAb25502 (antibody, human IgG4, V domains shown) VH: QLQLQESGPGLVKPSETLSLTCTVSGGSISSSSYYWGWIRQPPGKGLEWIGSIYYSGSPYYIPSLKSRVTISVDTSKNQFSLKLSSVTAADTAMYYCARQGRGIARAGPFDYWGQGTLVTVSS VL: DIQMTQSPSSLSASVGDRVTITCRASQGISNYLAWYQEKPGKVPKLLIYAASTLQSGVPSRFSGSGSGTDFTLTITSLQSEDVATYYCQKYNSAPPWTFGQGTKVEIK | 113 RU | 3.56 nM | 0.000264 s⁻¹ | 74000 M⁻¹ s⁻¹ | 43.8 min | 81 RU | 4.17 nM | 0.000253 s⁻¹ | 60600 M⁻¹ s⁻¹ | 45.7 min | 78 RU | 3.4 nM | 0.000236 s⁻¹ | 69400 M⁻¹ s⁻¹ | 49 min | 105 RU | 6.49 nM | 0.000467 s⁻¹ | 72000 M⁻¹ s⁻¹ | 24.7 min | 100 nM Ag Bound (RU) (mfNPR1-mFc:hBNP complex): 110 RU; Kd (mfNPR1-mFc:hBNP complex): 4.08 nM; koff (mfNPR1-mFc:hBNP complex): 0.000282 s⁻¹; kon (mfNPR1-mFc:hBNP complex): 69000 M⁻¹ s⁻¹; t½ (mfNPR1-mFc:hBNP complex): 41 min; 100 nM Ag Bound (RU) (mfNPR1-mFc [8]): 22 RU; Kd (mfNPR1-mFc [8]): 1.6 nM; koff (mfNPR1-mFc [8]): 0.000141 s⁻¹; kon (mfNPR1-mFc [8]): 88300 M⁻¹ s⁻¹; t½ (mfNPR1-mFc [8]): 82 min; 100 nM Ag Bound (RU) (mfNPR1-mFc:hANP complex [4]): 143 RU; Kd (mfNPR1-mFc:hANP complex [4]): 5.76 nM; koff (mfNPR1-mFc:hANP complex [4]): 0.000524 s⁻¹; kon (mfNPR1-mFc:hANP complex [4]): 91000 M⁻¹ s⁻¹; t½ (mfNPR1-mFc:hANP complex [4]): 22 min; 100 nM Ag Bound (RU) (hNPR1-mFc:hBNP complex [6]): 102 RU; Kd (hNPR1-mFc:hBNP complex [6]): 7.82 nM; koff (hNPR1-mFc:hBNP complex [6]): 0.000472 s⁻¹; kon (hNPR1-mFc:hBNP complex [6]): 60300 M⁻¹ s⁻¹; t½ (hNPR1-mFc:hBNP complex [6]): 24.5 min
mAb22810 (antibody, human IgG4, V domains shown) VH: EVQLVESGGGLVKPGGSLRLSCVVSGFTFRIYTMNWVRQAPGKGLEWVASISSSSSFINYADSLKGRFTISRDNAQNSLYLQMNSLRAEDTAIYYCARAAGNDVLPGRMDVWGQGTSVTVSS VL: EIVLTQSPGTLSLSPGERATLSCRASQSVSSNYLAWYQQKPGQVPSLLIYGASSRATGIPDRFSGSGSGTDFTLTITRLEPEDFAVYYCQQYGISPWTFGQGTKVEIK |  |  |  |  |  | 14 RU | 41.4 nM | 0.000344 s⁻¹ | 8310 M⁻¹ s⁻¹ | 34 min |  |  |  |  |  | 26 RU | 75.5 nM | 0.00104 s⁻¹ | 13700 M⁻¹ s⁻¹ | 11 min | 
